# Experimental data as given in article PMC8569915 (ChemSusChem, 2021).
# B1: [2SCC-(I9CL12C)2] (peptide)
# chain: Ac-GIAALEQKCAACEEKNAALEWKIAALEKKG-NH2
# modifications: cysteine pairing not given here
# Target: the molecule itself
# Test: SEC
protein,measurement,value
B1,stoichiometry N,2
